The nature of data set [1]: time-lapse imaging after sorbitol release, HeLa. To be noted: glycan lost; control: EGFP-WT-YTHDF1.
A short description of data set [2]: FRAP in cells, NaCl or sorbitol stress. Conditions: glycan lost; control: EGFP-WT-YTHDF1.
Data set [3] in a line: luciferase tethering reporter after 1 h sorbitol, HEK293T. To be noted: glycan lost; control: N-WT-YTHDF1.

B1: YTHDF1: EGFP-YTHDF1-Mut (protein)
parent chain: MSATSVDTQRTKGQDNKVQNGSLHQKDTVHDNDFEPYLTGQSNQSNSYPSMSDPYLSSYYPPSIGFPYSLNEAPWSTAGDPPIPYLTTYGQLSNGDHHFMHDAVFGQPGGLGNNIYQHRFNFFPENPAFSAWGTSGSQGQQTQSSAYGSSYTYPPSSLGGTVVDGQPGFHSDTLSKAPGMNSLEQGMVGLKIGDVSSSAVKTVGSVVSSVALTGVLSGNGGTNVNMPVSKPTSWAAIASKPAKPQPKMKTKSGPVMGGGLPPPPIKHNMDIGTWDNKGPVPKAPVPQQAPSPQAAPQPQQVAQPLPAQPPALAQPQYQSPQQPPQTRWVAPRNRNAAFGQSGGAGSDSNSPGNVQPNSAPSVESHPVLEKLKAAHSYNPKEFEWNLKSGRVFIIKSYSEDDIHRSIKYSIWCSTEHGNKRLDSAFRCMSSKGPVYLLFSVNGSGHFCGVAEMKSPVDYGTSAGVWSQDKWKGKFDVQWIFVKDVPNNQLRHIRLENNDNKPVTNSRDTQEVPLEKAKQVLKIISSYKHTTSIFDDFAHYEKRQEEEEVVRKERQSRNKQ
Consider B1, for which the “other: stress granule disassembly rate” value in data set [1] is reported as “decreases”. In data set [2], the “other: stress granule dynamics (FRAP recovery)” value was “decreases”.

B2: YTHDF1: N-YTHDF1-Mut (protein)
parent chain: B1 parent chain
In the case of B2, the “other: translation restoration after stress” value in data set [3] is on record as “decreases”.

The values are drawn from article PMC12060179.
